Data taken from article PMC12084551.

Assays:
[1] = biological target: full-length GAS2 (GAS2-FL (1–314)) (mouse) (UniProt P11862); assay: SEC; Superdex 75 HR 10/300; 30 mM Tris-HCl pH 8.0, 300 mM KCl, 100 μM ZnCl2, 0.1% β-ME; molecular weight from a calibration with BSA, carbonic anhydrase and cytochrome c
[2] = biological target: microtubules (MTs) polymerized from porcine brain tubulin (pig (porcine brains)) (UniProt Q2XVP4); assay: co-sedimentation; GAS2 proteins at different concentrations with Taxol-stabilized MTs in BRB80 with 1 mM GTP, room temperature, 20 min; 186,000 × g, 10 min, 25 °C; SDS-PAGE, one site-specific binding fit

stoichiometry N [1]	Kd [2]	Substance
2	–	full-length GAS2 (GAS2-FL (1–314)) (from UniProt P11862 1-314) (natural protein)
–	0.69 µM	GAS2-GAR domain (residues 198–314) (from UniProt P11862 198-314) (domain or fragment)
–	2.69 µM	GAS2-GAR G255A (from UniProt P11862 198-314) (domain or fragment)
–	10.6 µM	GAS2-GAR K266E (from UniProt P11862 198-314) (domain or fragment)
–	47 µM	GAS2-GAR R252E (from UniProt P11862 198-314) (domain or fragment)
–	27 µM	GAS2-GAR W257E (from UniProt P11862 198-314) (domain or fragment)
–	5 µM	GAS2-GAR R242E (from UniProt P11862 198-314) (domain or fragment)
–	9.6 µM	GAS2-GAR G255E (from UniProt P11862 198-314) (domain or fragment)
